This note sets out measurements from PMC9852558 (The Journal of Biological Chemistry, 2022).

Targets include FGFR1β (IIIc)/Fc (Homo sapiens, UniProt P11362, strain, biotinylated); FGFR3 (IIIb) (Homo sapiens (assumed), UniProt P22607-2); FGFR1 (IIIb) (Homo sapiens, FGFR1 splice form IIIb, UniProt P11362, strain); FGFR4 (Homo sapiens (assumed), UniProt P22455); FGFR2 (IIIb) (Homo sapiens (assumed), UniProt P21802-3).
Common to all, as to experiment: SPR

Sequence of FGFR1 (IIIb) (P11362 whole entry, looked up, change not shown, canonical isoform): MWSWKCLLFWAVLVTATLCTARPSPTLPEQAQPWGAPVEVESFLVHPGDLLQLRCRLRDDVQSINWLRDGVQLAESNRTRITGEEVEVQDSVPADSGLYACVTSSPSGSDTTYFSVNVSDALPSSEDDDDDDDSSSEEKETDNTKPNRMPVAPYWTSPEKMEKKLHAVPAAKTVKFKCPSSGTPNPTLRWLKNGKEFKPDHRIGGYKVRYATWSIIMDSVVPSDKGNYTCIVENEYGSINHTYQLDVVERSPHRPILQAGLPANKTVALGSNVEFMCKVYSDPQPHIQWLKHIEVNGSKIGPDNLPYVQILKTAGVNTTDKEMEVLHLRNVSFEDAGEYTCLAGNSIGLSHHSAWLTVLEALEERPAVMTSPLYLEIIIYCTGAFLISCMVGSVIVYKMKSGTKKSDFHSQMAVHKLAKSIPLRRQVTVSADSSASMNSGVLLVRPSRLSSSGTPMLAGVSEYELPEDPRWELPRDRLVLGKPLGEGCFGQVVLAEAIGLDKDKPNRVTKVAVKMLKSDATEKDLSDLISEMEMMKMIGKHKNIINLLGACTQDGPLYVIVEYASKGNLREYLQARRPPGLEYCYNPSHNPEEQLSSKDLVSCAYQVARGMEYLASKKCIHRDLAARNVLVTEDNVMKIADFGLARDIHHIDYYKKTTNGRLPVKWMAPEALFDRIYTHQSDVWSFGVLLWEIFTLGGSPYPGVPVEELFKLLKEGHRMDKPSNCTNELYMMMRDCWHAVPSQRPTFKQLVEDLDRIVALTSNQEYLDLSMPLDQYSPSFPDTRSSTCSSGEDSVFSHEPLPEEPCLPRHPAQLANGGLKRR
Sequence of FGFR4 (P22455 22-802): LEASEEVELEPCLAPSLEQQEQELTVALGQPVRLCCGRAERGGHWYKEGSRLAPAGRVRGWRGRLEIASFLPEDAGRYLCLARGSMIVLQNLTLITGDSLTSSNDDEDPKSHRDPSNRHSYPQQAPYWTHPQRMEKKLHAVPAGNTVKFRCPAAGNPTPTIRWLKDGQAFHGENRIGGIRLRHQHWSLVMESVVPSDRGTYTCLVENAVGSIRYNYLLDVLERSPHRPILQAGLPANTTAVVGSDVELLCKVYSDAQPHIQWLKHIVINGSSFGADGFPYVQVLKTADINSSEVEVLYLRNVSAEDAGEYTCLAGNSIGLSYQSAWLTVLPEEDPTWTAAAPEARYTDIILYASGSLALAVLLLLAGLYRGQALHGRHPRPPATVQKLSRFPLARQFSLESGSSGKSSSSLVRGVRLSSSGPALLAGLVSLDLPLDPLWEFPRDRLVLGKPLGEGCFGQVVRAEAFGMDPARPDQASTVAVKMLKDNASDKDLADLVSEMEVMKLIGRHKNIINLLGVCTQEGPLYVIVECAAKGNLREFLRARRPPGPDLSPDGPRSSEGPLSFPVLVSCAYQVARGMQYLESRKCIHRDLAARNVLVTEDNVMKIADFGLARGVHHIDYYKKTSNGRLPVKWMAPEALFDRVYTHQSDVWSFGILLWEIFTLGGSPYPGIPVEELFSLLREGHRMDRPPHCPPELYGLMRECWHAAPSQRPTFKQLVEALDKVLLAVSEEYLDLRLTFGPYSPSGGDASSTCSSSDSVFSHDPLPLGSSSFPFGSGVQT

B1: clone VM34 (VHH)
VHH: QLQLVESGGGSVQAGGSLRLSCAASRSLSRFNVWTWYRQAPVKQRELVASITKSGDTNYAESVKGRFIISRDDDKNTVYLQMNNLKSEDTGIYYCAGSYYSGSYLYPSPGGFSVWGQGTQVTVSS
With B1, the Kd with FGFR1β (IIIc)/Fc was found to be 1.74 nM; in the test with FGFR1 (IIIb) it was 92.8 nM; in the test with FGFR4 it was 22.2 nM. In addition, the koff in the test with FGFR1β (IIIc)/Fc is 0.00142 s⁻¹; in the test with FGFR1 (IIIb), 0.0254 s⁻¹; with FGFR4, 0.0527 s⁻¹. Moreover, the kon with FGFR1β (IIIc)/Fc was found to be 819000 M⁻¹ s⁻¹; with FGFR1 (IIIb), 274000 M⁻¹ s⁻¹; with FGFR4, 2.37e+06 M⁻¹ s⁻¹. Moreover, the binding result with FGFR3 (IIIb) and with FGFR2 (IIIb) was “no binding” each time.

B2: clone VM35 (VHH)
VHH: QVQLVESGGGLVQAGGSLRLSCAVPGSIFRFNTMGWYRQPPGKQRELVAQMSRGGITKYGDSVKGRFTITRDNAKNTVHLQMNSLKPEDTAVYYCAGSYYSGSYYYPSPQGFSVWGQGTQVTVSP
B2: in the test with FGFR1β (IIIc)/Fc, the Kd was 1.02 nM, the koff worked out at 0.00114 s⁻¹ and the kon stood at 1.11e+06 M⁻¹ s⁻¹.

For orientation: Kd means the equilibrium constant for the complex coming apart. A high value points to lower affinity. The koff is the first-order rate constant of dissociation. Higher therefore signals fast dissociation. Broadly, the kon is the rate constant with which the complex forms. Higher therefore signals fast association.
